For this experiment, the target named is T1, CHAP domain of Streptococcus pneumoniae PcsB (residues A274-D392) (Streptococcus pneumoniae, UniProt Q8DMY4 274-392).
T1 sequence (looked up): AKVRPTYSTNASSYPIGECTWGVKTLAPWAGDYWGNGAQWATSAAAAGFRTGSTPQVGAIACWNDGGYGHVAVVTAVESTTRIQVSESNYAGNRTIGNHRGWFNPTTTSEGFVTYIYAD
Kind of experiment: SPR. Background: Surface plasmon resonance follows binding to a sensor surface in real time, without labels.

B1: synthetic pneumococcal stem pentapeptide L-Ala-D-isoGln-L-Lys-D-Ala-D-Ala (peptide)
peptide: AQKAA
modifications: D-isoglutamine at position 2 (iQ); D-alanine at positions 4 and 5
Consider B1, for which the “fold change of KD against AEKADAD” value is roughly 15 fold.
